Results reported in publication PMC7857400 (Science (New York, N.y.), 2020).

Legend:
[1] = target: T1, SARS-CoV-2 spike protein receptor binding domain (RBD) (SARS-CoV-2, UniProt P0DTC2); assay: SPR; conditions: both partners purified
[2] = target: T1, SARS-CoV-2 spike protein receptor …; assay: cell-based or functional assay

Binder	Kd [1]	IC50 of neutralisation, pseudotyped SARS-CoV-2 (luciferase reporter); RBD-hACE2 is the pair interfered with [2]
Nb20 (VHH) VHH: QVQLVESGGGLVQAGGSLRLSCAVSGAGAHRVGWFRRAPGKEREFVAAIGASGGMTNYLDSVKGRFTISRDNAKNTIYLQMNSLKPQDTAVYYCAARDIETAEYIYWGQGTQVTVSS	10.4 pM	102 pM
Nb21 (VHH) VHH: QVQLVESGGGLVQAGGSLRLSCAVSGLGAHRVGWFRRAPGKEREFVAAIGANGGNTNYLDSVKGRFTISRDNAKNTIYLQMNSLKPQDTAVYYCAARDIETAEYTYWGQGTQVTVSS	–	45 pM
